The data set concerns the molecule itself. Description: SDS-PAGE after mild SDS treatment (SDS-stable oligomer); purified His-tagged protein treated with 1% SDS for 5 min at room temperature or 42 °C, 12% SDS-PAGE, anti-His-tag immunoblot; trimer at about 65 kDa, monomer 26 kDa. For orientation: A western blot detects proteins with antibodies after separation by electrophoresis.

From article PMC4844422, “Activity Regulation by Heteromerization of Arabidopsis Allene Oxide Cyclase Family Members” (Plants, 2016) come the findings set out here.

B1: Arabidopsis allene oxide cyclase 2 (AOC2), recombinant, with N-terminal His-tag (enzyme, Arabidopsis thaliana, UniProt Q9LS02 78-253, looked up)
chain: PSKVQELSVYEINELDRHSPKILKNAFSLMFGLGDLVPFTNKLYTGDLKKRVGITAGLCVVIEHVPEKKGERFEATYSFYFGDYGHLSVQGPYLTYEDSFLAITGGAGIFEGAYGQVKLQQLVYPTKLFYTFYLKGLANDLPLELTGTPVPPSKDIEPAPEAKALEPSGVISNYTN
notes: also called AtAOC2; hAOC2; source: E. coli M15 (pQE30), purified (Ni-NTA-agarose); not shown: His-tag, N-terminal, kept
The stoichiometry N is the number of molecules, sites or subunits per partner or assembly. As for B1, the “stoichiometry N” value turned out to be 3.

B2: Arabidopsis allene oxide cyclase 2 (AOC2), recombinant, with C-terminal His-tag (enzyme, Arabidopsis thaliana, UniProt Q9LS02 78-253, looked up)
chain: B1 chain
notes: also called AtAOC2; source: E. coli M15 (pQE60), purified (Ni-NTA-agarose); not shown: His-tag, C-terminal, kept
With B2, the “stoichiometry N” value was 3.
